The target of this experiment is T1, knob Fc F241R/F243S (Homo sapiens (Human), UniProt P0DOX5 223-449 = IgG part, F241R; F243S).
T1 construct: Positions are EU numbers; the entry starts at 221; also called Knob F241R/F243S; F241R/F243S mutant knob
As to the kind of experiment: SPR (BioRad ProteOn), immobilized ligand Knob F241R/F243S, analyte Knob F241S/F243R at 6.25-200 nM. As for the experimental part: FIGS. 11A-11E are a series of the surface plasmon resonance (SPR) spectra curves from experiments using an immobilized ligand. The analyte was passed over the ligand and the homodimerization was monitored. Analyte concetrations were tested at 6.25 nM, 12.5 nM, 25 nM, 50 nM, 100 nM and 200 nM. The ligands were: (A) The knob wild-type, (B) hole wild-type, (C) knob F241R/F243S, (D) knob F241S/F243R, and (E) hole F241S/F243R.
Using a BioRad ProteOn™ system, knob wild-type, hole wild-type, knob F241R/F243S, knob F241S/F243R, and hole F241S/F243R ligands were immobilized on an NHS activated sensor. The analyte, knob F241S/F243R, was passed over the sensor in 25 mM Tris 150 mM NaCl 0.05% Tween-20 pH 8.0. Analyte concentrations were 200 nM, 100 nM, 50 nM, 25 nM, 12.5 nM, and 6.25 nM. The ProteOnM chip was regenerated between each analyte concentration using 10 mM Glycine pH3. […] The Kd for the heterodimers is in the single digit nanomolar range in both cases.

B1: knob Fc F241S/F243R (other, name in EU numbering)
chain: DKTHTSPPSPAPELLGGPSVSLRPPKPKDTLMISRTPEVTCVVVDVSHEDPEVKFNWYVDGVEVHNAKTKPREEQYNSTYRVVSVLTVLHQDWLNGKEYKCKVSNKALPAPIEKTISKAKGQPREPQVYTLPPSREEMTKNQVSLWCLVKGFYPSDIAVEWESNGQPENNYKTTPPVLDSDGSFFLYSKLTVDKSRWQQGNVFSCSVMHEALHNHYTQKSLSLSPGK
notes: Positions are EU numbers; the entry starts at 221; This was the analyte in the SPR experiment; also called Knob F241S/F243R; F241S/F243R mutant knob
Regarding B1, the binding result is on record as “no binding (tested: 200 nM)”.

The record behind these values is patent publication US20200377604A1 (Genentech, published 2020).
